± gives the uncertainty stated by the source.
Assay: self-splicing fitness, log relative to wild type (ln ratio); higher = more splicing; Tetrahymena group I intron in knt gene, E. coli kanamycin selection, DiMSum; sequences stand for … in CUCUCU…GGAGGGAAAAGUUAUCAGGCAUGCACCUGGUAGCUAGUCUUUAAACCAAUAGAUUGCAUCGGUUUAAAAGGCAAGACCGUCAAAUUGCGGGAAAGGGGUCAACAGCCGUUCAGUACCAAGUCUCAGGGGAAACUUUGAGAUGGCCUUGCAAAGGGUAUGGUAAUAAGCUGACGGACAUGGUCCUAACCACGCAGCCAAGUCCUAAGUCAACAGAUCUUCUGUUGAUAUGGAUGCAGUUCACAGACUAAAUGUCGGUCGGGGAAGAUGUAUUCUUCUCAUAAGAUAUAGUCGGACCUCUCCUUAAUGGGAGCUAGCGGAUGAAGUGAUGCAACACUGGAGCCGCUGGGAACUAAUUUGUAUGCGAAAGUAUAUUGAUUAGUUUUGGAGUACUCGUGGUCG
In short: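 Fitness was computed with DiMSum as the error-weighted combination of replicate fold changes, kanamycin versus none, each normalised to wild type. The library randomised all eight intron nucleotides of the P1ex region, with the intron placed in the knt kanamycin-resistance gene on pET-22b(+) in E. coli BL21(DE3). Six replicate transformations were grown overnight at 37°C or 30°C on LB agar with or without 25 μg/mL kanamycin, plus 100 μg/mL carbenicillin, 50 μM IPTG and 0.2% rhamnose. Pooled colonies were amplicon-sequenced on an Illumina HiSeq 2500.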

| Sequence | self-splicing fitness (ln) (30 °C) | self-splicing fitness (ln) (37 °C) |
| --- | --- | --- |
| ACCCAGCAAUAUUACGUGAU | -0.402 ± 0.034 | 0.181 ± 0.048 |
| ACCCAGCAAUAUUACGUUCC | -2.32 ± 0.11 | -1.02 ± 0.14 |
| ACCCAGCAAUAUUACGUUGG | -3.6 ± 0.1 | -2.16 ± 0.11 |
| ACCCAGCAAUAUUACGUUUG | -4.2 ± 0.13 | -2.44 ± 0.11 |
| ACCGAGCAAUAUUACGAAAA | -3.51 ± 0.3 | -2.81 ± 0.24 |
| ACCGAGCAAUAUUACGAAGG | -2.76 ± 0.17 | -2.7 ± 0.28 |
| ACCGAGCAAUAUUACGACGA | -1.16 ± 0.15 | -0.75 ± 0.15 |
| ACCGAGCAAUAUUACGAGAG | -3.89 ± 0.28 | -2.63 ± 0.18 |
| ACCGAGCAAUAUUACGAGCC | -3.21 ± 0.23 | -3.23 ± 0.32 |
| ACCGAGCAAUAUUACGAGUU | -3.25 ± 0.14 | -2.87 ± 0.15 |
| ACCGAGCAAUAUUACGAUAG | -3.12 ± 0.21 | -2.42 ± 0.24 |
| ACCGAGCAAUAUUACGAUUA | -2.31 ± 0.17 | -3.01 ± 0.25 |
| ACCGAGCAAUAUUACGCAAC | -2.01 ± 0.2 | -0.42 ± 0.2 |
| ACCGAGCAAUAUUACGCACG | -3.67 ± 0.31 | -3.29 ± 0.33 |
| ACCGAGCAAUAUUACGCCAG |  | -1.35 ± 0.27 |
| ACCGAGCAAUAUUACGCCGU | -3.49 ± 0.3 | -1.75 ± 0.2 |
| ACCGAGCAAUAUUACGCGAC |  | -2.66 ± 0.44 |
| ACCGAGCAAUAUUACGCGUG | -1.41 ± 0.079 | -0.71 ± 0.08 |
| ACCGAGCAAUAUUACGCUCA | -1.14 ± 0.13 | -0.577 ± 0.2 |
| ACCGAGCAAUAUUACGGCGA | -0.182 ± 0.086 | -0.768 ± 0.12 |
| ACCGAGCAAUAUUACGGUGG | -2.91 ± 0.13 | -3.14 ± 0.29 |
| ACCGAGCAAUAUUACGUAAU | -3.19 ± 0.12 | -1.54 ± 0.13 |
| ACCGAGCAAUAUUACGUACC | -3.88 ± 0.33 | -2.37 ± 0.44 |
| ACCGAGCAAUAUUACGUACG | -3.75 ± 0.28 | -2.57 ± 0.22 |

| Sequence | self-splicing fitness (ln) (30 °C) | self-splicing fitness (ln) (37 °C) |
| --- | --- | --- |
| ACCGAGCAAUAUUACGUAGG | -3.76 ± 0.2 | -2.79 ± 0.24 |
| ACCGAGCAAUAUUACGUCAC | -3.34 ± 0.27 | -2 ± 0.21 |
| ACCGAGCAAUAUUACGUCUA | -3.65 ± 0.28 | -2.86 ± 0.17 |
| ACCGAGCAAUAUUACGUGCA | -2.45 ± 0.13 | -1.79 ± 0.12 |
| ACCGAGCAAUAUUACGUGGU | -3.77 ± 0.17 | -2.05 ± 0.18 |
| ACCGAGCAAUAUUACGUUAC | -4.23 ± 0.22 | -2.66 ± 0.18 |
| ACCUAGCAAUAUUACGAAAG | -2.49 ± 0.11 | -2.2 ± 0.13 |
| ACCUAGCAAUAUUACGAAAU | -2.9 ± 0.16 | -0.321 ± 0.15 |
| ACCUAGCAAUAUUACGACAA | -0.996 ± 0.14 | -0.881 ± 0.16 |
| ACCUAGCAAUAUUACGACGC | -0.289 ± 0.11 | 0.164 ± 0.12 |
| ACCUAGCAAUAUUACGACUU | -0.837 ± 0.094 | 0.22 ± 0.1 |
| ACCUAGCAAUAUUACGAUAG | -3.99 ± 0.35 | -2.49 ± 0.41 |
| ACCUAGCAAUAUUACGAUCC | -2.35 ± 0.17 | -1.15 ± 0.2 |
| ACCUAGCAAUAUUACGCAAU | -2 ± 0.1 | -0.798 ± 0.09 |
| ACCUAGCAAUAUUACGCCAG | -1.83 ± 0.22 |  |
| ACCUAGCAAUAUUACGCCGG | -0.962 ± 0.13 | -0.598 ± 0.17 |
| ACCUAGCAAUAUUACGCCGU | -0.801 ± 0.083 | -0.776 ± 0.11 |
| ACCUAGCAAUAUUACGCGAC | -2.55 ± 0.2 | -0.855 ± 0.19 |
| ACCUAGCAAUAUUACGCUCC | -1.55 ± 0.14 | -0.204 ± 0.12 |
| ACCUAGCAAUAUUACGCUCG | -1.43 ± 0.12 | -1.48 ± 0.14 |
| ACCUAGCAAUAUUACGCUGU | -1.54 ± 0.071 | -0.737 ± 0.078 |
| ACCUAGCAAUAUUACGGAUG | -2.77 ± 0.11 | -1.24 ± 0.09 |
| ACCUAGCAAUAUUACGGCCC | -0.812 ± 0.18 | -0.39 ± 0.24 |
| ACCUAGCAAUAUUACGGCUC | -0.922 ± 0.1 | -0.468 ± 0.14 |

| Sequence | self-splicing fitness (ln) (30 °C) | self-splicing fitness (ln) (37 °C) |
| --- | --- | --- |
| ACCUAGCAAUAUUACGUAUA | -1.6 ± 0.1 | -1.46 ± 0.12 |
| ACCUAGCAAUAUUACGUGGA | -2.36 ± 0.093 | -1.62 ± 0.084 |
| ACCUAGCAAUAUUACGUUGA | -1.98 ± 0.087 | -1.54 ± 0.098 |
| ACGAAGCAAUAUUACGAAUG | -1.51 ± 0.11 | -2.67 ± 0.18 |
| ACGAAGCAAUAUUACGAGCU | -1.56 ± 0.12 | -0.76 ± 0.11 |
| ACGAAGCAAUAUUACGAUCC | -1.12 ± 0.1 | -0.136 ± 0.14 |
| ACGAAGCAAUAUUACGCAUG | -1.79 ± 0.062 | -0.62 ± 0.083 |
| ACGAAGCAAUAUUACGCCAA | -2.55 ± 0.31 | -1.98 ± 0.23 |
| ACGAAGCAAUAUUACGCCUG | -0.445 ± 0.095 | 0.217 ± 0.12 |
| ACGAAGCAAUAUUACGCGCC | -0.967 ± 0.1 | 0.356 ± 0.14 |
| ACGAAGCAAUAUUACGCGGU | -3.65 ± 0.18 | -1.48 ± 0.1 |
| ACGAAGCAAUAUUACGGAGA | -2.86 ± 0.2 | -2.42 ± 0.22 |
| ACGAAGCAAUAUUACGGAUU | -1.86 ± 0.087 | -1.67 ± 0.11 |
| ACGAAGCAAUAUUACGGCGC | -0.589 ± 0.086 | -0.278 ± 0.12 |
| ACGAAGCAAUAUUACGGGCG | -1.15 ± 0.072 | -0.126 ± 0.1 |
| ACGAAGCAAUAUUACGUAGU | -3.12 ± 0.12 | -2.13 ± 0.17 |
| ACGAAGCAAUAUUACGUAUC | -4.38 ± 0.27 | -2.66 ± 0.22 |
| ACGAAGCAAUAUUACGUCGG | -1.67 ± 0.1 | -1.65 ± 0.11 |
| ACGAAGCAAUAUUACGUGUU | -2.94 ± 0.07 | -1.81 ± 0.07 |
| ACGAAGCAAUAUUACGUUAA | -3.25 ± 0.22 | -2.09 ± 0.14 |
| ACGAAGCAAUAUUACGUUCG | -1.3 ± 0.083 | -0.906 ± 0.11 |
| ACGAAGCAAUAUUACGUUGU | -2.95 ± 0.14 | -1.86 ± 0.12 |
| ACGCAGCAAUAUUACGACUC | -0.833 ± 0.08 | 0.365 ± 0.096 |
| ACGCAGCAAUAUUACGAGGU | -3.55 ± 0.17 | -2.27 ± 0.16 |

| Sequence | self-splicing fitness (ln) (30 °C) | self-splicing fitness (ln) (37 °C) |
| --- | --- | --- |
| ACGCAGCAAUAUUACGAUGG | -1.82 ± 0.097 | -1.59 ± 0.13 |
| ACGCAGCAAUAUUACGCAAG | -2.25 ± 0.081 | -0.638 ± 0.091 |
| ACGCAGCAAUAUUACGCACU | -0.177 ± 0.08 | 0.479 ± 0.11 |
| ACGCAGCAAUAUUACGCAGA | -2.74 ± 0.18 | -1.92 ± 0.12 |
| ACGCAGCAAUAUUACGCAUC | -2.1 ± 0.11 | -1.47 ± 0.16 |
| ACGCAGCAAUAUUACGCCUG | -2.79 ± 0.2 | -2.42 ± 0.33 |
| ACGCAGCAAUAUUACGCGCC | -2.5 ± 0.15 | -3.01 ± 0.27 |
| ACGCAGCAAUAUUACGCUAG | -3.42 ± 0.22 | -2.33 ± 0.24 |
| ACGCAGCAAUAUUACGCUGA | -0.604 ± 0.095 | -0.835 ± 0.11 |
| ACGCAGCAAUAUUACGCUGG | -2.25 ± 0.12 | -1.48 ± 0.14 |
| ACGCAGCAAUAUUACGCUGU | -2.71 ± 0.14 | -3.83 ± 0.28 |
| ACGCAGCAAUAUUACGGCGU | -3.68 ± 0.16 | -2.23 ± 0.14 |
| ACGCAGCAAUAUUACGGGGA | -2.28 ± 0.091 | -2.14 ± 0.1 |
| ACGCAGCAAUAUUACGGGGU | -4.68 ± 0.22 | -2.34 ± 0.12 |
| ACGCAGCAAUAUUACGUACA | -2.03 ± 0.11 | -0.547 ± 0.12 |
| ACGCAGCAAUAUUACGUAGG | -2.12 ± 0.096 | -2.86 ± 0.13 |
| ACGCAGCAAUAUUACGUGCC | -1.7 ± 0.11 | -0.959 ± 0.12 |
| ACGCAGCAAUAUUACGUGGG | -3.55 ± 0.13 | -2.37 ± 0.12 |
| ACGCAGCAAUAUUACGUGUG | -2.86 ± 0.11 | -2.31 ± 0.12 |
| ACGCAGCAAUAUUACGUGUU | -4.19 ± 0.1 | -2.85 ± 0.14 |
| ACGCAGCAAUAUUACGUUCA | -1.96 ± 0.11 | -0.844 ± 0.094 |
| ACGCAGCAAUAUUACGUUGG | -2.94 ± 0.082 | -1.91 ± 0.096 |
| ACGGAGCAAUAUUACGAGCU | -3.64 ± 0.46 | -2.24 ± 0.32 |
| ACGGAGCAAUAUUACGAGUC | -3.83 ± 0.33 | -2.64 ± 0.38 |

Source: the supplement of paper PMC7877785
